Measurements: patent US8754193 (dated 2014)

Legend:
[1] = molecular target: TrkC/Fc (human, UniProt Q16288); assay: yeast
[2] = molecular target: T1, TrkA/Fc (human, UniProt P04629); assay: yeast
T1 chain: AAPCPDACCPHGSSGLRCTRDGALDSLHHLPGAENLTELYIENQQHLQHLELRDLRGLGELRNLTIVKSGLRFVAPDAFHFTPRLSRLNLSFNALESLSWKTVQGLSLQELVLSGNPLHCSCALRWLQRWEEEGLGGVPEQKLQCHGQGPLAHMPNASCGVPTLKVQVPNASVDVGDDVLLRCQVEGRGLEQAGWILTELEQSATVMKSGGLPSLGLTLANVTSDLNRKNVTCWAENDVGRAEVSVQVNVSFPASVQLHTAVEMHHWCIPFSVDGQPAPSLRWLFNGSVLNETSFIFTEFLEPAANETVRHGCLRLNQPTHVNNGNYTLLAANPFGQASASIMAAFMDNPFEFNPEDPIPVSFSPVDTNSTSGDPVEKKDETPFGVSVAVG

[3] = molecular target: T2, TrkB (human, UniProt Q16620); assay: FACS, soluble GFAb on TrkB-loaded beads
[4] = molecular target: T2, TrkB; assay: competition, solution phase
[5] = molecular target: T2, TrkB; assay: yeast
[6] = molecular target: T2, TrkB; assay: yeast; remark: listed apart in the source
[7] = molecular target: T2, TrkB; assay: yeast; remark: listed apart in the source
[8] = molecular target: GAPDH (human, UniProt P04406); assay: yeast
[9] = molecular target: Streptavidin-PE (Streptomyces avidinii, UniProt P22629); assay: yeast
Chain of Streptavidin-PE (P22629 37-163): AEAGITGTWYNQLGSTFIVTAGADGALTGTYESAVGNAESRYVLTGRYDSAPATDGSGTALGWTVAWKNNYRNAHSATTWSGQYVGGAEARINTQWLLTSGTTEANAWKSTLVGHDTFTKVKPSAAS

T2 sequence (Q16620 32-430): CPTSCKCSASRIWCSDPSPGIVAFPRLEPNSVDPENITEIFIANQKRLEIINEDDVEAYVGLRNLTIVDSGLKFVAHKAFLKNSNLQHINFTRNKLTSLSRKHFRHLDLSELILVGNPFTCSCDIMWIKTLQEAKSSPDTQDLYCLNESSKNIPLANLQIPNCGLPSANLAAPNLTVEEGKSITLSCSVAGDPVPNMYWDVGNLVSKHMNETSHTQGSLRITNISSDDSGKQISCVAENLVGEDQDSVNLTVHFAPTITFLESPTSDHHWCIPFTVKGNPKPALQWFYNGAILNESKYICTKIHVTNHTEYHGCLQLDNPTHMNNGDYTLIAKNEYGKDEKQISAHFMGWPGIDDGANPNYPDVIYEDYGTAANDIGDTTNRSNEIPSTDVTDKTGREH
Chain of GAPDH (P04406 2-335): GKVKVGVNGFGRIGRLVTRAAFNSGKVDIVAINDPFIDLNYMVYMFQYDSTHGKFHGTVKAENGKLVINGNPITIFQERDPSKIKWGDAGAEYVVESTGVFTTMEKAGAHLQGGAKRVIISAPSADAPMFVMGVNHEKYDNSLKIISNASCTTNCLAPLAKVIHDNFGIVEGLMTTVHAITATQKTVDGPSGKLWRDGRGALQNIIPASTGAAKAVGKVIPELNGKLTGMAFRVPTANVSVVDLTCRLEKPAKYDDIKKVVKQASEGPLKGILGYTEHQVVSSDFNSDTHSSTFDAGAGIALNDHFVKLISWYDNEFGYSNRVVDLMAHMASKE
Chain of TrkC/Fc (Q16288 32-429): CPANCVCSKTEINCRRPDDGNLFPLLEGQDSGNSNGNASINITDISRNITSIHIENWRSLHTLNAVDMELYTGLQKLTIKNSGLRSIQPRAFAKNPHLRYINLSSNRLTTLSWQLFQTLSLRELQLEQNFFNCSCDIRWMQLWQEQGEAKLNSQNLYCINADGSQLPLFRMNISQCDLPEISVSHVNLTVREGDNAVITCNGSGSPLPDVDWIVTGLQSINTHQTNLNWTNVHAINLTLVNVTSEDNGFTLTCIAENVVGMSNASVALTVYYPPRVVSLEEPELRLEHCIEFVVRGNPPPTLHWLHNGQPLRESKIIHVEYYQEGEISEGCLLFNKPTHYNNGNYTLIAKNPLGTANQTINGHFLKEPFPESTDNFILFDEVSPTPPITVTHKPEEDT

B1: GFAb T3 (designed binder)
chain 1: not shown
chain 2: VINPFTVRS
chain 3: NAWVVHRR
B1 was tested, and the binding result [1] was “no binding”, the binding result [2] was “no binding” and the Kd [3] was 34 nM. It also gave a Kd [4] of about 10 nM, a Kd [5] of 3.2 nM and a Kd [6] of 2 nM.

B2: 20-5-8 scaffold (designed binder)
chain 1: not shown
chain 2: LKQHFWSTPRTTS
chain 3: SRERDYRLDYTR
B2: no binding [7].

B3: GFAb G8 (designed binder)
chain 1: not shown
chain 2: SHCLFRKCY
chain 3: ARSIRMKV
With B3 the Kd [8] was over 500 nM.

B4: GFAb G7 (designed binder)
chain 1: not shown
chain 2: NVIYPFLYA
chain 3: RVTKTKHK
Work on B4 yielded a Kd [8] of over 500 nM.

B5: T3 102-103 loop only (designed binder)
chain 1: not shown
chain 2: VINPFTVRS
chain 3: SRERDYRLDYTR
B5 showed a Kd [6] of 19 nM.

B6: GFAb 1.3 (designed binder)
chain 1: not shown
chain 2: AISRSFFST
chain 3: IRNLKYTN
modifications: conjugate with phycoerythrin
Work on B6 yielded a Kd [9] of 70 nM.

B7: GFAb G4 (designed binder)
chain 1: not shown
chain 2: RGVSKSFLL
chain 3: QGITKGYK
For B7, the Kd [8] was over 500 nM.

B8: GFAb 2.7 (designed binder)
chain 1: not shown
chain 2: VFSSLRYHV
chain 3: LRMDDTNP
modifications: conjugate with phycoerythrin
With B8 the Kd [9] was 140 nM.

B9: T3 172-173 loop only (designed binder)
chain 1: not shown
chain 2: LKQHFWSTPRTTS
chain 3: NAWVVHRR
B9 gave a Kd [6] of 300 nM.

B10: GFAb G6 (designed binder)
chain 1: not shown
chain 2: RVSRFLLTT
chain 3: KSRIISSQ
B10 showed a Kd [8] of 18 nM.

B11: GFAb 2.17 (designed binder)
chain 1: not shown
chain 2: KARMRLFLM
chain 3: EYGDTLLS
modifications: conjugate with phycoerythrin
In the case of B11, the Kd [9] is reported as 110 nM.
